Data taken from the DeepSol protein solubility set.

Experiment: soluble on expression in E. coli; label from the status in PepcDB or PDB records

Sequence | soluble on expression in E. coli
MAKNTLSFVCQNCGAAYNRWQGKCESCGEWNTLAEEDTSGSVPVSIRSKRKGRTFALESLAGKSPDAPRLSSGMTELDRVTGGGFVRGSVLLVGGDPGIGKSTLLTQATSLMARAGHRIVYISGEEAIAQVRLRAERLGLSDAPVQLAAETSVEDIVSTLSEGAVPRLIVIDSIQTMWTDTVESAPGTVTQVRASAQALIRFAKKTGAAIILVGHVTKDGQIAGPRVVEHMVDAVMSFEGEGSQQFRILRAVKNRFGPTDEIGVFEMTGLGLREVTNPSELFLSERDLGTPGTAVFAGIEGTRPVLVELQALVAPTSLGTPRRAVVGWDPSRLSMVLAVLEAHCGVKLSGHDVYLNVAGGLRIHEPAADLAAAAALVSSLVNAQLPTDAVYFGEISLSGVVRPVAQTPARLKEAAKLGFQRAVLPESARGEAGGDAGLSLNAVNSLTTLVAEIAARGSRRGESGGSAEKNATPARFRRGEGLEHHHHHH | not soluble
GMSWEKSGKEGSLLRWYDVMEAERYEYTVGPAGEQFFNGLKQNKIIGSKCSKCGRIFVPARSYCEHCFVKIENYVEINKDEAYVDSYTIIYNDDEGNKLAQPVYIALIRFPNIEGGLLCYAEGNVKVGAKAKILSFQWPLRVKVD | soluble
MGSDKIHHHHHHMTAISREVPRTPHDLSLYLTRLGLTAPDLGSAMQPVLDVLVSRTAAVGAGYFQLRDSTLTYQARAASGDLPQGPLMEALLAHGLPPELPLVQALEAADGALFFEDTRLDPQAAGFADLGVLALTAAPVHNQSGRLVGALLSHVFAPHPWSAEERQLVSTVTGLLTLLAARLDAEERERAAHESALRALGLMLEARDTETQGHTDRVTALALRLGRALGLSDTELRDLRWGAYLHDIGKIAIPDAILHCPGTLDLAAWARMQEHVNEGTRLAAQLPFLPRAALDVIACHHECWDGSGYPRGLAGEAIPRHARIFAACDVYDALVSARPYKRAWTHAEATAYLEQRSGHQFDPVIVRALLRVLEDEDSAAANA | not soluble
KSIVKIRNRMAAETQTLNFGPEWLRALSSGGSITSPPLSPALPKYKLADYRYGREEMLALFLKDNKIPSDLLDKEFLPILQEEPLPPLALVPFTEEEQRNFSMSVNSAAVLRLTGRGGGGTVVGAPRGRSSSRGRGRGRGECGFYQRSFDEVEGVFGRGGGREMHRSQSWEERGDRRFEKPGRKDVGKKNGYYCMYSPVLLLGQPLCQGRPNFEEGGPTSVGRKHEFIRSESENWRIFREEQNGEDEDGGWRLAGSRRDGERWRPHSPDGPRSAGWREHMERRRRFEFDFRDRDDERGYRRVRSGSGSIDDDRDSLPEWCLEDAEEEMGTFDSSGAFLSLKKVQKEPIPEEQEMDFRPVDEGEECSDSEGSHNEEAKEPDKTNKKEGEKTDRVGVASEETPQTSSSSARPGTPSDHQSQEASQFERKDEPKTEQTEKAEEETRMENSLPAKVPSRGDEMVADVQQPLSQIPSDTASPLLILPPPVPNPSPTLRPVETPVVGAPGMGSVSTEPDDEEGLKHLEQQAEKMVAYLQDSALDDERLASKLQEHRAKGVSIPLMHEAMQKWYYKDPQGEIQGPFNNQEMAEWFQAGYFTMSLLVKRACDESFQPLGDIMKMWGRVPFSPGPAPPPHMGELDQERLTRQQELTALYQMQHLQYQQFLIQQQYAQVLAQQQKAALSSQQQQQLALLLQQFQTLKMRISDQNIIPSVTRSVSVPDTGSIWELQPTASQPTVWEGGSVWDLPLDTTTPGPALEQLQQLEKAKAAKLEQERREAEMRAKREEEERKRQEELRRQQEEILRRQQEEERKRREEEELARRKQEEALRRQREQEIALRRQREEEERQQQEEALRRLEERRREEEERRKQEELLRKQEEEAAKWAREEEEAQRRLEENRLRMEEEAARLRHEEEERKRKELEVQRQKELMRQRQQQQEALRRLQQQQQQQQLAQMKLPSSSTWGQQSNTTACQSQATLSLAEIQKLEEERERQLREEQRRQQRELMKALQQQQQQQQQKLSGWGNVSKPSGTTKSLLEIQQEEARQMQKQQQQQQQHQQPNRARNNTHSNLHTSIGNSVWGSINTGPPNQWASDLVSSIWSNADTKNSNMGFWDDAVKEVGPRNSTNKNKNNASLSKSVGVSNRQNKKVEEEEKLLKLFQGVNKAQDGFTQWCEQMLHALNTANNLDVPTFVSFLKEVESPYEVHDYIRAYLGDTSEAKEFAKQFLERRAKQKANQQRQQQQLPQQQQQQPPQQPPQQPQQQDSVWGMNHSTLHSVFQTNQSNNQQSNFEAVQSGKKKKKQKMVRADPSLLGFSVNASSERLNMGEIETLDDY | soluble
MKLSQLGFFCAVVERGTIAAAAEQLHCVPSNITTRLRELEGQLGVALFNRERNRLLVTPEGRLLYRHATRLLALADETAALFAGDQAHGALRVGALDVALANHLPQRLARYRRESPGVELHIRPEHSLLLERLLMEGELDLIVTDGPIEHPLLASRLAFRERLLRVTPADLPAPTPEDLAGLELYVFGHTCHYRRQVDRWLAESAIQPRATLEIESYPSLFACIEAGLGFACVPESFVARRPSTRRGFHAEPVAGLDSSDIHFVWRKQQASPLIQGFIDSIGAD | not soluble
MKVAVLDFGKTNSKLFVFGQDGGILDERRTQPKWTHQDGFSVLDEAALHDWALGAVTEAVENHGVEGVMVSGHGCTFALVDDAALTHPILDYEQEPPAEIAARIDHRIPDFAETFSPRLPLGFNYGRHMLWVQEVDPDAFAAAKSILGYPQYWSWRLGGRPVSEVSYLGCHSHLWAPRSQDFSSLVDAEGWRGQMPAFARAGAVIGERRLGSSSRPIAIHNGVHDSNAALHAYRRQELGPLTVVSTGTWVVVLNPGCPLDVLDRDRDMLVNVDVDGGPVPTIRFMGGREFAAISAGWQGAIPPGAVQQAIDAGIMALPSFAPGGPMPDRPGRLVGRTPYAAERAAAALLYVALMVDLCLDLIQSQDTVIVDGGLNAGGLLAGLLAELRPGQAFLQGATLEGSATGAAALAFESVGRDFVAEAPEPVHAARFAGLAGYRDAWRDRVGGQGTAIKAAGGARLEHHHHHH | not soluble
MSTTTDYDDNDVKIITKPVQSKNPVLIEGFPGIGLVGNIASQHIIEELNMEYIGSIDSRYFPSIAVLYEGLINMPVRIYENVEHNLIIVISDIPISHSVSYDVSNALVDWAEAINVKEIASIAGIAIMDGGHKVFGAATTPEMLDKIRDKVEIFQMGTISGISGSVMAECLLRGIPAISLLGATRTQNPDPRAASSVIGVLNELYGLSISTDRLIEQAERIEIELQRLAEDVQATERKGEVKKEFPMYG | soluble
MSLSLRLPLAGGGLETFKLSAPRDFPARASGPMNRIAFSAAHVVADPLAASDPWLEAAIDWDHTIAYRQRLWDLGLGVAEAMDTAQRGMGLDWPTSLDLIRRSVEAAKAHGPEALVFSGAGTDHLAPEAARSLDDVIRAYEEQVAAVEKVGGRIILMASRALARIGTSAADYETVYGRILSQVREPVIIHWLGDMFDPALAGYWGTRDLDAAMDTAVAIINAHAAKVDGVKISLLDKDKEIAMRRRLDPAVRMYTGDDFNYAELVAGDAQGYSHALLGIFDAIAPAASAALTALAAGDEAGFHDILAPTVPLSRHIFRAPTRFYKTGVVFMAYLNGHQDHFTMVGGQESARSTLHLAELFRLADRAGLLTDPDLAVQRMRAVLAVRGVEAEGHHHHHH | soluble
MGSDKIHHHHHHMDRINYKHLHYFWHVARAGSVTRAAGQLNVSMQTISGQITKLEQQLGRSLFRQQGRGLALTEAGRLALDYADRIFLLGEELETALADPLLDQTLRLAAGISDVVPKGIASRLLRPALRTNGRLRLSCGEGDFDELIGELGRHRLDLVLADRPVASGEQQQFQSWPLLRCPVQLLAAPELHARCQAGFPASLEQAPLLLPSRDNVLRRQLEHWFDANGVRPDLVGEFDDHALMETFARQGLGLLPAPVSPDGEADHPGLLPLGALDGVWEHYYVTASRRKLQHPALQAILQAWT | not soluble
MNNIAAPDQSFNPAHVLSFDLETTSANPFEARIVTSALVRIDSSGAHPVELLADPGVEIPEAASKVHGISTEYAREHGEPHEAVLKRTVDEIYAAWEEGFTLVVYNAPYDLTVLRQLTGDFVVKGPVYDPYLIDRIMDRFRKGKRTLTDLCSVYGVRMDNAHEATSDALAAARIAWMQAKKRFKDDLAAYSHDELMEYQAVQYYELQKDMKKYLDGLGRDTSTVNFGWPMQNSR | not soluble
